B1: CAMK2B (parent)
chain: YQQIKAGAYDFPSPEWDTVTPEAK

Variants of: B1
Assay: protein stability index of a GFP-peptide fusion (GPS, HEK-293T) (PSI 1-6); higher = more stable
Conditions: c terminus: a fixed tail appended
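Further: lentivirally expressed fusions sorted by FACS into six bins by GFP to DsRed ratio, PSI derived from sequencing read proportions per bin multiplied by bin number.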

Protein stability index of substitutions, site by site:
E22: K 2.93 | W 2.08 | D 3.89 | I 3.05 | C 2.82 | R 2.91 | V 2.82 | F 2.3 | A 2.9 | H 2.98 | P 2.93 | T 3.05
A23: C 2.98 | R 3.69 | L 2.81 | G 3.94 | I 3.28 | S 3.86 | V 3.27 | P 3.48 | Q 4.06 | Y 3.43 | H 3.92 | N 3.97
S13: N 3.69 | C 2.74 | I 3.37 | G 4.11 | M 2.75 | H 3.25 | R 3.29 | K 3.4 | Y 3.6
Y1: L 4.75 | T 4.88 | D 5.38 | A 4.94 | F 3.33 | H 4.58 | Q 4.92 | S 4.94 | G 5.11 | N 5.21 | P 4.94 | K 4.88 | R 4.83 | C 4.45
A8: S 3.75 | N 3.95 | F 2.84 | E 3.95 | C 3.44 | I 3.05 | M 3.44 | P 3.02 | H 3.79 | L 3.03 | T 3.44
Y9: P 4.17 | V 4.13 | C 3.79 | T 4.23 | D 4.73 | E 4.71 | F 3.5 | S 4.3 | N 4.26 | G 4.6 | Q 4.48 | K 3.99 | H 4.14 | L 4.04 | I 3.9
Q3: I 3.15 | S 2.8 | D 3.94 | N 3.62 | T 3.28 | C 2.17 | P 3.03 | L 3.38 | H 3.28 | Y 2.6 | G 2.68 | R 2.22 | A 2.11 | V 3.44 | F 2.55 | K 2.75
T18: R 3.33 | E 4.27 | Q 4.03 | G 3.56 | F 3.09 | H 3.63 | V 3.1 | L 3.35 | W 1.85 | M 3.24 | Y 2.79 | I 3.06
P14: A 3.96 | R 3.37 | T 3.82 | W 2.57 | I 3.4 | N 3.88 | C 3.45 | K 3.85 | G 4.03
Q2: F 3.46 | A 3.12 | C 2.87 | R 4.06 | H 2.88 | M 3.95 | S 4.34 | Y 3.6 | W 3.06 | L 3.35 | E 4.64 | G 3.7 | D 4.78
G7: N 3.77 | L 3 | F 1.86 | S 3.78 | C 2.77 | R 2.96 | Y 1.87 | A 3.79 | H 3.69 | E 4.23 | V 3.53 | M 3.23 | D 3.99
D17: S 2.77 | R 2.57 | I 2.76 | E 4.15 | C 2.34 | A 3.25 | H 2.85 | W 2 | Q 3.17 | K 2.69 | F 2.07 | V 2.3
V19: K 3.66 | I 3.79 | R 2.99 | C 3.82 | Q 4.01 | D 4.23 | N 3.97 | S 3.59 | P 3.69 | T 3.96 | A 3.48 | E 3.8 | L 3.53
K5: W 1.95 | A 4.07 | G 3.88 | H 3.46 | Y 3.11 | I 3.35 | N 3.92 | S 3.64 | T 4 | P 3.71 | E 4.84 | F 3.12 | R 3.34
K24: H 3.6 | T 3.47 | S 3.93 | I 3.59 | V 3.55 | E 4.21 | A 3.78 | Y 3.04 | G 3.93 | N 4.11 | W 2.63 | P 3.37 | R 3.43
P12: Q 4 | T 3.36 | A 2.94 | E 4.09 | V 2.81 | R 2.34 | Y 3.71 | L 2.9 | I 3.21 | G 3.71
I4: F 3.19 | E 4.26 | W 2.05 | A 3.46 | V 3.93 | K 3.42 | Y 3.21 | T 3.58 | R 3.06 | N 3.41
E15: K 2.88 | L 2.52 | W 2.21 | R 2.88 | G 2.72 | P 2.77 | V 2.55 | A 2.93
A6: Y 3.16 | S 3.59 | P 3.82 | E 4.41 | H 3.24 | R 2.38 | V 3.12 | M 3.96 | G 3.13 | Q 3.92 | W 2.28 | L 3.09 | N 3.44
T20: E 3.93 | G 3.7 | F 3.03 | K 3.41 | W 2.46 | P 3.18 | M 3.16 | C 3.51 | Y 3.06 | V 3.66 | Q 3.34 | I 3.16 | S 3.74 | R 3.47
F11: C 4 | H 4.2 | D 4.63 | W 3.15 | A 4.58 | M 4.04 | K 3.91 | R 3.73 | I 3.8 | P 4.67 | N 4.37 | Q 4.24
W16: K 3.45 | Y 3.53 | S 4.58 | H 4.35 | V 4.2 | R 3.54 | P 4.64 | F 4.16 | I 4.2 | L 4.36 | Q 4.28 | G 4.35
P21: Q 3.91 | D 4.05 | R 3.2 | K 3.76 | N 3.78 | M 3.31 | H 3.42 | Y 3.08 | A 3.44
D10: E 3.55 | F 1.98 | I 1.99 | Y 1.79 | Q 2.67 | K 2.25 | C 2.25 | P 2.7 | M 2.7 | W 2.83 | V 2.41 | S 2.39 | A 2.72

— the supplement of paper PMC10567573
